In article PMC11892261, “NONO interacts with nuclear PKM2 and directs histone H3 phosphorylation to promote triple-negative breast cancer metastasis” (Journal of Experimental & Clinical Cancer Research : CR, 2025):

B1: His-NONO fusion protein (natural protein, UniProt Q15233 1-471, looked up)
chain: MQSNKTFNLEKQNHTPRKHHQHHHQQQHHQQQQQQPPPPPIPANGQQASSQNEGLTIDLKNFRKPGEKTFTQRSRLFVGNLPPDITEEEMRKLFEKYGKAGEVFIHKDKGFGFIRLETRTLAEIAKVELDNMPLRGKQLRVRFACHSASLTVRNLPQYVSNELLEEAFSVFGQVERAVVIVDDRGRPSGKGIVEFSGKPAARKALDRCSEGSFLLTTFPRPVTVEPMDQLDDEEGLPEKLVIKNQQFHKEREQPPRFAQPGSFEYEYAMRWKALIEMEKQQQDQVDRNIKEAREKLEMEMEAARHEHQVMLMRQDLMRRQEELRRMEELHNQEVQKRKQLELRQEEERRRREEEMRRQQEEMMRRQQEGFKGTFPDAREQEIRMGQMAMGGAMGINNRGAMPPAPVPAGTPAPPGPATMMPDGTLGLTPPTTERFGQAATMEGIGAIGGTPPAFNRAAPGAEFAPNKRRRY
notes: NONO, from the pET28a plasmid; source: E. coli BL21, purified (nickel-nitrilotriacetic acid beads)
B2: full-length GST-NONO (natural protein, UniProt Q15233 1-471, looked up)
chain: B1 chain
notes: NONO, full length (fragments run to residue 471), from the pGEX-6P-1 plasmid; also called GST-NONO fusion protein; source: E. coli BL21, purified (glutathione S-transferase beads)
B3: GST-PKM2 fragment F4 (390-531 aa) (domain or fragment, UniProt P14618 390-531, looked up)
chain: YHLQLFEELRRLAPITSDPTEATAVGAVEASFKCCSGAIIVLTKSGRSAHQVARYRPRAPIIAVTRNPQTARQAHLYRGIFPVLCKDPVQEAWAEDVDLRVNFAMNVGKARGFFKKGDVVIVLTGWRPGSGFTNTMRVVPVP
notes: PKM2 residues 390-531, from the pGEX-6P-1 plasmid; also called GST-PKM2 F4; source: E. coli BL21, purified (glutathione S-transferase beads)
B4: GST-NONO fragment F4 (229-471 aa) (domain or fragment, UniProt Q15233 229-471, looked up)
chain: QLDDEEGLPEKLVIKNQQFHKEREQPPRFAQPGSFEYEYAMRWKALIEMEKQQQDQVDRNIKEAREKLEMEMEAARHEHQVMLMRQDLMRRQEELRRMEELHNQEVQKRKQLELRQEEERRRREEEMRRQQEEMMRRQQEGFKGTFPDAREQEIRMGQMAMGGAMGINNRGAMPPAPVPAGTPAPPGPATMMPDGTLGLTPPTTERFGQAATMEGIGAIGGTPPAFNRAAPGAEFAPNKRRRY
notes: NONO residues 229-471, from the pGEX-6P-1 plasmid; also called GST-NONO F4; source: E. coli BL21, purified (glutathione S-transferase beads)

How the values were obtained:
Details in all cases: both partners purified
GST-PKM2-R400A mutant = biological target: T1, GST-PKM2-R400A mutant (UniProt P14618 1-531, R400A); test: pull-down; GST pull-down: GST-PKM2 (full length, fragments or mutants) incubated with His-NONO at 4 °C for 4 h, five washes, western blot
T1 construct: PKM2 point mutant, from the pGEX-6P-1 plasmid; Probably made on the full-length GST-PKM2; source: E. coli BL21, purified (glutathione S-transferase beads)

GST-PKM2-D476A mutant = biological target: T2, GST-PKM2-D476A mutant (UniProt P14618 1-531, D476A); test: as above
T2 construct: PKM2 point mutant, from the pGEX-6P-1 plasmid; Probably made on the full-length GST-PKM2; source: E. coli BL21, purified (glutathione S-transferase beads)

GST-PKM2-W515A mutant = biological target: T3, GST-PKM2-W515A mutant (UniProt P14618 1-531, W515A); test: as above
T3 construct: PKM2 point mutant, from the pGEX-6P-1 plasmid; Probably made on the full-length GST-PKM2; source: E. coli BL21, purified (glutathione S-transferase beads)
T3 sequence (P14618 whole entry W515A): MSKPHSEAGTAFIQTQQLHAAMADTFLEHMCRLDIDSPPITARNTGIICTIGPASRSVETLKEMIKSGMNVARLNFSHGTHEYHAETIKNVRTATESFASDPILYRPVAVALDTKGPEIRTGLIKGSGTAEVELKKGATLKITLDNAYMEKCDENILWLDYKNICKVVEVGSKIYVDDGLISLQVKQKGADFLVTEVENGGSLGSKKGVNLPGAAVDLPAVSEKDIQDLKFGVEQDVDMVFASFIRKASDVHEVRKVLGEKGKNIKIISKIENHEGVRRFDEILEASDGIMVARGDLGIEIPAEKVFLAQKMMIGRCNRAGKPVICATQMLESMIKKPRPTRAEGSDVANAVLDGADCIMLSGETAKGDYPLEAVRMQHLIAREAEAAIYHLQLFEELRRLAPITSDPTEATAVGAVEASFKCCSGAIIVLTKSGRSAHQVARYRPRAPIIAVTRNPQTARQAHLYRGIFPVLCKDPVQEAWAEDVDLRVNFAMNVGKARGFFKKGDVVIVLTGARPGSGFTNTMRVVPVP

GST-PKM2-R526A mutant = biological target: T4, GST-PKM2-R526A mutant (UniProt P14618 1-531, R526A); test: as above
T4 construct: PKM2 point mutant, from the pGEX-6P-1 plasmid; Probably made on the full-length GST-PKM2; source: E. coli BL21, purified (glutathione S-transferase beads)
T4 sequence (P14618 whole entry R526A): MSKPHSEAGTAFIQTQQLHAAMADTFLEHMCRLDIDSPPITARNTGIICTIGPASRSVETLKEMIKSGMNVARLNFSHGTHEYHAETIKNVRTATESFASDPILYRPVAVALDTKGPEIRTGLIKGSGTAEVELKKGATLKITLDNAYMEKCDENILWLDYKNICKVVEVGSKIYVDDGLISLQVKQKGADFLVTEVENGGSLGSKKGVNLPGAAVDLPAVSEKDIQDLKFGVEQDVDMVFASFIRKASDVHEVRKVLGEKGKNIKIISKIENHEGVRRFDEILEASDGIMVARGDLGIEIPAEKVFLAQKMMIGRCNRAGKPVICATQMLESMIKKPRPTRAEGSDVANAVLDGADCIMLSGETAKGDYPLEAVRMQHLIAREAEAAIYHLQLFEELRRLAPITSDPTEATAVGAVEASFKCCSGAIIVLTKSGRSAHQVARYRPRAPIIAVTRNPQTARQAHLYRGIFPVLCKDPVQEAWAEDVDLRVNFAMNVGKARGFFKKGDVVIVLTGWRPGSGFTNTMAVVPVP

GST-PKM2-T412A mutant = biological target: T5, GST-PKM2-T412A mutant (UniProt P14618 1-531, T412A); test: as above
T5 construct: PKM2 point mutant, from the pGEX-6P-1 plasmid; Probably made on the full-length GST-PKM2; source: E. coli BL21, purified (glutathione S-transferase beads)

GST-PKM2-D487A mutant = biological target: T6, GST-PKM2-D487A mutant (UniProt P14618 1-531, D487A); test: as above
T6 construct: PKM2 point mutant, from the pGEX-6P-1 plasmid; Probably made on the full-length GST-PKM2; source: E. coli BL21, purified (glutathione S-transferase beads)

GST-PKM2-S406A mutant = biological target: T7, GST-PKM2-S406A mutant (UniProt P14618 1-531, S406A); test: as above
T7 construct: Probably made on the full-length GST-PKM2; source: E. coli BL21, purified (glutathione S-transferase beads)

[1] = biological target: T8, full-length GST-PKM2, wild type (UniProt P14618 1-531); test: as above
T8 construct: PKM2, full length (fragments run to residue 531), from the pGEX-6P-1 plasmid; also called GST-PKM2 WT; PKM2-WT; source: E. coli BL21, purified (glutathione S-transferase beads)

His-PKM2 fusion protein = biological target: T9, His-PKM2 fusion protein (UniProt P14618 1-531); test: pull-down; GST pull-down: GST-NONO (full length or fragments) on glutathione-Sepharose beads mixed with His-PKM2 for 4 h at 4 °C, five washes, western blot
T9 construct: PKM2, from the pET28a plasmid; source: E. coli BL21, purified (nickel-nitrilotriacetic acid beads)

His-NONO fusion protein = biological target: B1; test: pull-down; GST pull-down: GST-PKM2 (full length, fragments or mutants) incubated with His-NONO at 4 °C for 4 h, five washes, western blot

Binder: B1
binding result (GST-PKM2-R400A mutant): binds
binding result (GST-PKM2-D476A mutant): binds
binding result (GST-PKM2-W515A mutant): binds
binding result (GST-PKM2-R526A mutant): binds
binding result (GST-PKM2-T412A mutant): binds
binding result (GST-PKM2-D487A mutant): binds
binding result (GST-PKM2-S406A mutant): binds
binding result [1]: binds

Binder: B2
binding result (His-PKM2 fusion protein): binds

Binder: B3
binding result (His-NONO fusion protein): binds

Binder: B4
binding result (His-PKM2 fusion protein): binds
